From patent US6942988

What was measured:
[1] = target: carboxyl-terminal Myc-tagged Ptc-CTD (mouse Ptc with a 140-residue carboxyl-terminal deletion; amino acids 1-1,291) (mouse) (UniProt Q61115); assay: competition with 0.9 nM 32P-Shh-N for binding to EcR-293 cells expressing Ptc-CTD, 4 C; KI from IC50
[2] = target: carboxyl-terminal Myc-tagged Ptc-CTD (mouse Ptc with a 140-residue carboxyl-terminal deletion; amino acids 1-1,291) (mouse) (UniProt Q61115); assay: Table 1 'Ptc-CTD affinity'; for wild type the dissociation constant (KL), as from the Scatchard analysis of 32P-Shh-N on EcR-293 cells expressing Ptc-CTD
[3] = target: carboxyl-terminal Myc-tagged Ptc-CTD (mouse Ptc with a 140-residue carboxyl-terminal deletion; amino acids 1-1,291) (mouse) (UniProt Q61115); assay: binding of 32P-Shh-N to EcR-293 cells expressing Ptc-CTD without competitor
[4] = target: carboxyl-terminal Myc-tagged Ptc-CTD (mouse Ptc with a 140-residue carboxyl-terminal deletion; amino acids 1-1,291) (mouse) (UniProt Q61115); assay: Scatchard analysis of the high-affinity component of 32P-Shh-N binding to EcR-293 cells expressing Ptc-CTD, 4 C

carboxyl-terminal Myc-tagged Ptc-CTD (mouse Ptc with a 140-residue carboxyl-terminal deletion; amino acids 1-1,291) (mouse), sequence (Q61115 1-1291, stated change not applied): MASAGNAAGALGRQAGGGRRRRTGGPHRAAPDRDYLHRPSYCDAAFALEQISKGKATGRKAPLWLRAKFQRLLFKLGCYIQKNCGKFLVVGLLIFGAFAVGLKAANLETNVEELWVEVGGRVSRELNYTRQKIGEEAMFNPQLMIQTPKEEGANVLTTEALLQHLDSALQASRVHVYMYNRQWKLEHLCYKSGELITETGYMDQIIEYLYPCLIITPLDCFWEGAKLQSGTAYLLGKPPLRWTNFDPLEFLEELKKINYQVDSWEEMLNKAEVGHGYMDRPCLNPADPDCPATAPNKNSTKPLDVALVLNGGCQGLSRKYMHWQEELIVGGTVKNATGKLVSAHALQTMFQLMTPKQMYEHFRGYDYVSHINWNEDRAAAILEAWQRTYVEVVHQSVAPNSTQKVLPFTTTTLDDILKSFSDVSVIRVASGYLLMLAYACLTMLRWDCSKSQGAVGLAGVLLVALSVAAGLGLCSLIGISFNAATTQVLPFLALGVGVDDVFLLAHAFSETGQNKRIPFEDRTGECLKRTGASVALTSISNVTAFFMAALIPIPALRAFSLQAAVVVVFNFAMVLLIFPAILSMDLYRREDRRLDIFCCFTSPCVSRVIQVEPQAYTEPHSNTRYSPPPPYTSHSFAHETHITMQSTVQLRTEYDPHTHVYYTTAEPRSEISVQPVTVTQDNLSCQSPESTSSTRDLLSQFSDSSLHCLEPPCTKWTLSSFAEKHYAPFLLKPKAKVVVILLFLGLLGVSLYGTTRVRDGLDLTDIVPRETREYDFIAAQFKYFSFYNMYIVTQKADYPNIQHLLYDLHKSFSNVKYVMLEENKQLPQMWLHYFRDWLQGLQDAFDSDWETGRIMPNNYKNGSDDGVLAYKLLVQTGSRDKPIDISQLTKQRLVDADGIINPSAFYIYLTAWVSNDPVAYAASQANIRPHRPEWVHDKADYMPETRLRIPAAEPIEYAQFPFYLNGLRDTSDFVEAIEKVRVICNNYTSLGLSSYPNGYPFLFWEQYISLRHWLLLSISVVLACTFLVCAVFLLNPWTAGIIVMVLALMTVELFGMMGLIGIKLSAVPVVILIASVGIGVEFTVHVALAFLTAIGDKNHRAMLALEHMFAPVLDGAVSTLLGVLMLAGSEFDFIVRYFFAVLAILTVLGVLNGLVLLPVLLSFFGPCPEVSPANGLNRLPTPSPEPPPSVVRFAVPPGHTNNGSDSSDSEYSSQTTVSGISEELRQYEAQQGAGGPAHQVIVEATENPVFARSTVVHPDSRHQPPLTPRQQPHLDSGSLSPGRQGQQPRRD

Substance | Ki [1] [nM] | also measured
Shh-N SC mutant protein (P42A, K46A, R154A, S157A, S178A, K179A) (from UniProt Q62226 25-198) (ligand) | > 36 | –
Shh-N SD altered protein (E90A, D132A, E138A) (from UniProt Q62226 25-198) (ligand) | 0.84 | –
wild-type Sonic hedgehog amino-terminal signaling domain protein (Shh-N), aa 25-198 (from UniProt Q62226 25-198) (ligand) | – | Kd [2]: 0.48 nM
Shh-N SA altered protein (K75A, E76A, Y81A, D105A, N116A, E189A, K195A) (from UniProt Q62226 25-198) (ligand) | 0.66 | –
Shh-N H135A (HA) mutant protein (from UniProt Q62226 25-198) (ligand) | 0.63 | –
Shh-N SG protein (S178A, K179A) (from UniProt Q62226 25-198) (ligand) | 4.3 | –
Shh-N SB altered protein (N51A, V52A, T56A, E168A) (from UniProt Q62226 25-198) (ligand) | 0.48 | –
Shh-N SF protein (R154A, S157A) (from UniProt Q62226 25-198) (ligand) | 9.1 | –
Shh-N H135A, E177A double mutant (EH) protein (from UniProt Q62226 25-198) (ligand) | 1.7 | –
Shh-N E177A (EA) mutant protein (from UniProt Q62226 25-198) (ligand) | 1.7 | –
Shh-N SE protein (P42A, K46A) (from UniProt Q62226 25-198) (ligand) | 2.4 | –
32P-labeled Shh-N protein with a protein kinase A site tag (RRASV) at the carboxy terminus (from UniProt Q62226 25-198) (ligand) | – | percent of input bound in the absence of competitor [3]: 35 % of input; Kd [4]: 0.48 nM
